± gives the half width of the 95% confidence interval.
Assay: folding stability dG unfold from trypsin proteolysis; higher = more stable
How it was run: (§1)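 Sequencing followed digestion of designed mini-proteins with trypsin and chymotrypsin, each at 11 concentrations in threefold dilutions together with a no-protease condition. The mini-proteins were under 80 residues, had no cysteine, sat in a PA-tagged cDNA display construct, and were kept only if AlphaFold2 dimer inter-PAE was above 15. From the counts, Bayesian fitting gave K50, and unfolding free energy was derived against a sequence-predicted unfolded-state K50 and a shared folded-state K50, per protease or combined.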

| Sequence | folding stability dG unfold |
| --- | --- |
| SAAPADNPVLVATLTVTVTRPVSFTSPDGSTGTVPETETRTLVLVADAGNDPEALERALELARRLAETVSAG [r14_830_TrMRF] | 2.73 ± 0.076 kcal/mol |
| SAGGSAGGSAGGPTVTLTLEVPVEDAEELAKALEDAGKARVTKVERNEDGFLRITVEFEDSAGGSAGGSAGG [r7_589_TrROS_Hall] | 0.593 ± 0.048 kcal/mol |
| SAGGSAGGSAGKKKVKLVEFDEETGYALLEVEDEETGETKLVLVPMTAEELEALPNIEVLSAGGSAGGSAGG [r17_46_TrROS_Hall] | 2.14 ± 0.24 kcal/mol |
| SMKMSPEEKLKELAKELAEKLEEETGKKVKVRVTVEYNGKTFEIEIEEGETIEDIRNKFPGLKIKVEIEPSA [r9_513_TrROS_Hall] | 1.34 ± 0.17 kcal/mol |
| SAGGSAGGSAGGMIKTEDGYEVEIKIEVEEIPLPEGMSEEEKEKLKKIRIIRIEIKVTKKSAGGSAGGSAGG [r7_324_TrROS_Hall] | 1.67 ± 0.12 kcal/mol |
| SAGPKIRTIIKEILKELNPDRPIEIHTHPDGFIIIVNPDDGRFIMIKIDPDGDIKISEVVPAEEMKKMMSAG [r5_852_TrROS] | 1.84 ± 0.033 kcal/mol |
| SAGGRRKIEFEVWIPMDKDGEITPNEIIEEAREIAEALPNFDNVEIEEISIQHHPDGWTRYNITIEVPSAGG [r13_462_TrROS] | 2.16 ± 0.16 kcal/mol |
| PWRPIMITVRANPNLKVDIYPPNGPQEEIPVDSPEDALKKAQKLLPPNYPIMVKVQNEGKPIATFPFWIPPS [r1_276_TrROS] | 2.84 ± 0.36 kcal/mol |
| SKIKKIKRVEIFKKKEKGYVVKITVEIDGKEYEFTVPAGMSLEEALKELLKNKDVKIKSVEIKPVSKEELSA [r9_607_TrROS_Hall] | 0.0722 ± 0.22 kcal/mol |
| SAMPAENMTPEEAAELALAYVERFRAEVEALGGPIPADTEIVVPVTLEGPPVEIKITFINPDEVEVEVASAG [r14_501_TrMRF] | 1.46 ± 0.15 kcal/mol |
| SAGGSAGGSASSSSSIKFLSEEEIKLPDGTPVKVKIYKDPSNNKEYLYLPESKVWLPISKISAGGSAGGSAG [r3_181_JUSTAS] | 1.41 ± 0.033 kcal/mol |
| SAELLDALKKNGWTIRIPIKHPGNGETWPMPFRIEPDGDGWKISIPPPNGKPHPFKIEDIEIMPPEDLKSAG [r14_427_TrROS] | 0.723 ± 0.11 kcal/mol |
| SAGGMLTLPATVEGDELTLTLPTGATKTVSPNTTVKLPDGTVVSLTPVSPSSVSATVTPLPADATRPSAGGS [r16_277_JUSTAS] | 0.208 ± 0.029 kcal/mol |
| SAGGSAGGIEVKIEGEIKPVKVTVSFSTANGDGNPKEYPVEKTYLVVDIKIEVNSPEAAKKINISAGGSAGG [r6_149_TrMRF] | 1.37 ± 0.058 kcal/mol |
| SAGGSAGGSAGGKEYKLVKVKVKVEITLPKGSELLKKLGLSEEDVKFEFELEVVVLVKPSAGGSAGGSAGGS [r10_82_TrROS_Hall] | 2.82 ± 0.21 kcal/mol |
| SAGGSAGGDVVIIPEPSEEDKMIFTIVADGEEAPVVLTVEADNLADVVDFLKEHGLAAGHPDDGSAGGSAGG [r6_40_TrMRF] | 0.713 ± 0.065 kcal/mol |

| Sequence | folding stability dG unfold |
| --- | --- |
| SAGGSAGGSAKPPVTLTILVKNPETGEWVRLEVEFLPDGTVKITVTNPNGEKYTFTFKLPPSAGGSAGGSAG [r3_61_TrROS_Hall] | 3.67 ± 0.18 kcal/mol |
| SKPGKTIMIMITMDNIKEFLEELPLEPNMEVEIMFMNPNGKMRTLTIRNGEIDSIEPFPNFPDYWMIMIKSA [r9_849_TrROS] | 2.69 ± 0.071 kcal/mol |
| SAGGSAGGSAGGEEVTIVVKSKEDIEALLPPGWKVTKIEEIYVDKETGEKYYKITVKKESAGGSAGGSAGGS [r10_256_TrROS_Hall] | 4.23 ± 0.17 kcal/mol |
| SSSSSRTIEYPDSTLELTFTTTPLPDDTYRVPVQVTRYDPVTKTWSTRNLTVPFPPSDPEAAAEAVIARLLS [r1_171_JUSTAS] | 0.11 ± 0.1 kcal/mol |
| SAGGSAGGSMVEYTFTVYDPRTGKETLFTVPSDIPFEEAKEKVEKEIRKGLPPNYTVTFTKPASAGGSAGGS [r20_213_JUSTAS] | 1.75 ± 0.035 kcal/mol |
| SAGGSAGGSAMVVPRTYRVPPGLTVEEVADYLRAKDPNVIDATAERRPDGYLLVTVLVRLDSAGGSAGGSAG [r3_371_TrMRF] | 1.21 ± 0.068 kcal/mol |
| SAGGSAGGSAGGGMRFTVEVEPGKVSYSPGIVNKNTPGSSVSEIITVTVVETNPEKLLLSAGGSAGGSAGGS [r10_654_JUSTAS] | -0.499 ± 0.29 kcal/mol |
| SAGGSAGGSPTYTIDVEKYPDGYYFLKIWMPGHNRKIEHPIPPDNPDKIDEITITPNGKIKIDSAGGSAGGS [r20_11_TrROS] | 0.161 ± 0.13 kcal/mol |
| SAGGSAGGSAGGSIEPITIILPDKIIRIYRFEDGTIVEIIDPETGKPTFISLEDAKKLIGSAGGSAGGSAGG [r7_372_TrMRF] | 2.33 ± 0.14 kcal/mol |
| SAGGKKPKKLTPEQIEELAKALAPEGAEVKVEVVEVTEKTVVVKITVKDKETGEEKTIEITLPLPEESAGGS [r16_486_TrROS_Hall] | 2.45 ± 0.18 kcal/mol |
| SKIKPGDVVTIMFPFPPGDPDQIREWAYWIARKLGPDVKVKSVEYNPNDPRYVQIEVRVPGGKITIHIMWSA [r9_1079_TrROS] | 2.7 ± 0.06 kcal/mol |
| SAGEIKITVEEVEDGELLVTVEITAESKEEALKALEDLIRELFGEDVEIVSVEFDEETKRIRVTIRIKPSAG [r5_810_TrROS_Hall] | 4.25 ± 0.21 kcal/mol |
| SIKFPDGSEIEFEWSEDKEYEVELPNGPIVKIKKVIKEGESWIVEVEFEDGSKVILEVDPNNPEEVQKAIAS [r1_66_TrMRF] | 1.77 ± 0.086 kcal/mol |
| SAGGSAGGSRKTILFRFPDGMMIKISLEENPNGNKRVRVTVYNPDNGKKRRMPADELPPNAKISAGGSAGGS [r12_797_TrROS] | 1.14 ± 0.079 kcal/mol |
| SKKPDQPPKTVPIEIWVPLPPGQTPEWREMAEEFAEIFADELQQEGFKNVTVEVEPNKDGWVHIDAEVQVSA [r9_865_TrROS] | 0.821 ± 0.15 kcal/mol |

Assay: folding stability dG unfold from chymotrypsin proteolysis; higher = more stable
How it was run: as §1

| Sequence | folding stability dG unfold |
| --- | --- |
| SAAPADNPVLVATLTVTVTRPVSFTSPDGSTGTVPETETRTLVLVADAGNDPEALERALELARRLAETVSAG [r14_830_TrMRF] | 4.04 ± 0.076 kcal/mol |
| SAGGSAGGSAGGPTVTLTLEVPVEDAEELAKALEDAGKARVTKVERNEDGFLRITVEFEDSAGGSAGGSAGG [r7_589_TrROS_Hall] | 1.28 ± 0.027 kcal/mol |
| SAGGSAGGSAGKKKVKLVEFDEETGYALLEVEDEETGETKLVLVPMTAEELEALPNIEVLSAGGSAGGSAGG [r17_46_TrROS_Hall] | 1.91 ± 0.079 kcal/mol |
| SMKMSPEEKLKELAKELAEKLEEETGKKVKVRVTVEYNGKTFEIEIEEGETIEDIRNKFPGLKIKVEIEPSA [r9_513_TrROS_Hall] | 0.00992 ± 0.22 kcal/mol |
| SAGGSAGGSAGGMIKTEDGYEVEIKIEVEEIPLPEGMSEEEKEKLKKIRIIRIEIKVTKKSAGGSAGGSAGG [r7_324_TrROS_Hall] | 2.5 ± 0.33 kcal/mol |
| SAGPKIRTIIKEILKELNPDRPIEIHTHPDGFIIIVNPDDGRFIMIKIDPDGDIKISEVVPAEEMKKMMSAG [r5_852_TrROS] | 1.17 ± 0.058 kcal/mol |
| SAGGRRKIEFEVWIPMDKDGEITPNEIIEEAREIAEALPNFDNVEIEEISIQHHPDGWTRYNITIEVPSAGG [r13_462_TrROS] | 2.42 ± 0.058 kcal/mol |
| PWRPIMITVRANPNLKVDIYPPNGPQEEIPVDSPEDALKKAQKLLPPNYPIMVKVQNEGKPIATFPFWIPPS [r1_276_TrROS] | 2.41 ± 0.14 kcal/mol |
| SKIKKIKRVEIFKKKEKGYVVKITVEIDGKEYEFTVPAGMSLEEALKELLKNKDVKIKSVEIKPVSKEELSA [r9_607_TrROS_Hall] | 0.734 ± 0.18 kcal/mol |
| SAMPAENMTPEEAAELALAYVERFRAEVEALGGPIPADTEIVVPVTLEGPPVEIKITFINPDEVEVEVASAG [r14_501_TrMRF] | 1.17 ± 0.09 kcal/mol |
| SAGGSAGGSASSSSSIKFLSEEEIKLPDGTPVKVKIYKDPSNNKEYLYLPESKVWLPISKISAGGSAGGSAG [r3_181_JUSTAS] | 1.74 ± 0.037 kcal/mol |
| SAELLDALKKNGWTIRIPIKHPGNGETWPMPFRIEPDGDGWKISIPPPNGKPHPFKIEDIEIMPPEDLKSAG [r14_427_TrROS] | 0.406 ± 0.42 kcal/mol |
| SAGGMLTLPATVEGDELTLTLPTGATKTVSPNTTVKLPDGTVVSLTPVSPSSVSATVTPLPADATRPSAGGS [r16_277_JUSTAS] | 1.601 ± 0.01 kcal/mol |
| SAGGSAGGIEVKIEGEIKPVKVTVSFSTANGDGNPKEYPVEKTYLVVDIKIEVNSPEAAKKINISAGGSAGG [r6_149_TrMRF] | 3 ± 0.13 kcal/mol |
| SAGGSAGGSAGGKEYKLVKVKVKVEITLPKGSELLKKLGLSEEDVKFEFELEVVVLVKPSAGGSAGGSAGGS [r10_82_TrROS_Hall] | 3.93 ± 0.074 kcal/mol |
